In article PMC2778949:

Target: Serum Resistance-Associated protein with C-terminal S tag
Test: pull-down (sup/bound fractions, western blot with α-S tag), quantified
Conditions: read off a plot

Work on “Apolipoprotein L-I, wild type, with C-terminal V5-His6 tag (from UniProt O14791-1) N386T; N387K; N388I; Y389Q” yielded a percent of parent (parent: est. 100) of 5.5 % binding.

Work on “apoL1 truncated mutant NNNY (9 C-terminal amino acids removed, human last four residues NNNY), C-terminal V5-His6 tag (from UniProt O14791-1) N386T; N387K; N388I; Y389Q” yielded a response (parent: est. 9) of 9.5 % binding.
